Molecular target: T1, human LRP6-ECD-Fc (human, UniProt O75581 20-1370)
T1 sequence (looked up): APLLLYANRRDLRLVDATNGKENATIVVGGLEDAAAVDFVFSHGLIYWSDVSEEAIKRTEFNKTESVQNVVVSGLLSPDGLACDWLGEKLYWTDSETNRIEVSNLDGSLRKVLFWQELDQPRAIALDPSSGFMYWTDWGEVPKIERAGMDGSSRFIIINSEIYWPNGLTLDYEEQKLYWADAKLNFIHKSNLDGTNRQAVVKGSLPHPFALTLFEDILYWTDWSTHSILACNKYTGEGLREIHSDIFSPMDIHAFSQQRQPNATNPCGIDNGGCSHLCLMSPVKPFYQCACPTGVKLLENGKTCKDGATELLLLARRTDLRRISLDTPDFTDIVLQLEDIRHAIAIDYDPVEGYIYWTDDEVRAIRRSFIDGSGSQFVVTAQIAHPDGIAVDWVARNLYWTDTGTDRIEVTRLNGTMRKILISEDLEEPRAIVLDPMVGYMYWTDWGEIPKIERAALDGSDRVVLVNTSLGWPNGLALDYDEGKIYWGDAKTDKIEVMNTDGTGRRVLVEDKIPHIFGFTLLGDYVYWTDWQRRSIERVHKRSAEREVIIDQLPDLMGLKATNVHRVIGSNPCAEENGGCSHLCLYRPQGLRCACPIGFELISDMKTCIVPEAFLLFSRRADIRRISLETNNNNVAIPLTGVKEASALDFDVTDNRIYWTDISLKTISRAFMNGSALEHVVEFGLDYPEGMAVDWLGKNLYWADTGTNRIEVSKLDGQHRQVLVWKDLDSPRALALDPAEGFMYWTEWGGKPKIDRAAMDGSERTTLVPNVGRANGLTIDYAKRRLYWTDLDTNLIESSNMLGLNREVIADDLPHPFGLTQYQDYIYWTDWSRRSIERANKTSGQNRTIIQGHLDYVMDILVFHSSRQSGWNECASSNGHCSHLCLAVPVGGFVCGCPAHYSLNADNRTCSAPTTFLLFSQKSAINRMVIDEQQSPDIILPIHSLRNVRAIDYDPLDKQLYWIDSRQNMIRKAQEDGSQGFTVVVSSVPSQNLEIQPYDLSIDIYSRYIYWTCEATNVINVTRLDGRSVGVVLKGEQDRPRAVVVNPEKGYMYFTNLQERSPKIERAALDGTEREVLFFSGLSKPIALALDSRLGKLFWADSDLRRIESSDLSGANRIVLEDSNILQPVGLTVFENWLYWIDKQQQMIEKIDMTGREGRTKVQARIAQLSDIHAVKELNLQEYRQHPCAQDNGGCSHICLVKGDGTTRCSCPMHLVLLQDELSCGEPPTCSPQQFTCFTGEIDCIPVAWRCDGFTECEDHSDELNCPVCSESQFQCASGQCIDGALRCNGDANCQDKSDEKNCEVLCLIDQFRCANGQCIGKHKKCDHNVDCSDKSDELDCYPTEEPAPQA
Assay: BLI

binding result: binds
B1: recombinant human Wnt3a (ligand, UniProt P56704 19-352, looked up)
chain: SYPIWWSLAVGPQYSSLGSQPILCASIPGLVPKQLRFCRNYVEIMPSVAEGIKIGIQECQHQFRGRRWNCTTVHDSLAIFGPVLDKATRESAFVHAIASAGVAFAVTRSCAEGTAAICGCSSRHQGSPGKGWKWGGCSEDIEFGGMVSREFADARENRPDARSAMNRHNNEAGRQAIASHMHLKCKCHGLSGSCEVKTCWWSQPDFRAIGDFLKDKYDSASEMVVEKHRESRGWVETLRPRYTYFKVPTERDLVYYEASPNFCEPNPETGSFGTRDRTCNVSSHGIDGCDLLCCGRGHNARAERRREKCRCVFHWCCYVSCQECTRVYDVHTCK

From doi:10.1101/2022.09.25.509440 (bioRxiv, 2022)
